Reference: the nanobody polyreactivity screen of Harvey et al. (2022)

Test: yeast display, Sf9 membrane polyspecificity reagent, FACS + sequencing; frameworks hold sequencing errors
Summary of the method: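 Nanobodies from a synthetic yeast display library (Saccharomyces cerevisiae BJ5465), induced 36–48 hours with galactose, were stained 1 hour at 4 °C with 10% biotinylated, detergent-solubilized Sf9 membrane reagent, enriched on streptavidin microbeads, then FACS-sorted. Anti-HA (expression) and streptavidin (reagent binding) fluorescence set low and high (top ~1%) gates. Polyreactivity labels come from the gate of origin. Genes were colony-PCR amplified, MiSeq 2 × 250 sequenced and filtered by CDR length.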

Row | Sequence | polyreactivity (PSR sort gate)
1 | QVQLQESGGVQAGGSLRLSCAASGYISRSDVMGWYRQAPGKERELVATINNGTITYYADSVKGRFTISRDNAKNTVYLQMNSLIPEDTAVHYCAVVQSDTDSLYYWGQGTQVTVSS | low polyreactivity
2 | QVQLQESGGVQAGGSLRLSCAASGYITRSDVMGSYRQAPGKERELVATINNGTMTYYADSEKGRYTISRDNAKKTVYLQKNSQKPEDTAVHYCAVDQSDTDSLYYWGQGTQVTVSS | low polyreactivity
3 | QVQLQESGGVQAGGSLRLSSAATGYIARSDDMGWYRQAPGKERELVATINNGTITYYADSVKGRFTISRDNAKNTVYLQMNSLKPEDTAVHYCAVVQSDTDSLYYWGQGTQVSVSS | low polyreactivity
4 | QVQLQESGRRPGAAGGSPRMSCAASGNIFWVAVMGRYRQAPGKERELGASIGFGCTTYYADSVKCRFTISRDNAKNTVYLQMISLKPEDTAVYYCAAPHYDWGELDYWGQGTQVPVSS | low polyreactivity
5 | QVQLQESGSGLVQAGGSLRLSCAASGNISQYNDIGWYRQAPGKEREPVATINSGSITYYADSVKGRLTISRDNAKNTVYLEMNSLKPEDTAVYYGAVKQHGFVYLEYWGQGTQVTVSR | high polyreactivity
6 | QVQLQESGSGLVQAGGSLRLSCAASGYISLGDNMGWYRQAPGKEREFVATISVGGITYYVDSVKGRFTISRDIAKNTVYLQMNSLKPEDTAVYYCADLDIYYFRYYYWGQGTQVTVSS | low polyreactivity
7 | QVQLQESRGGLVQAGGSLRLSCAATGTIFTDRIMGWYLQAPGKERELVAGISPGTSTNYADSVKGRFTISRDNEKNTVYLQMNSLKPEDTAVYYCAADWSTGNTLPYWGQGSQVTVSS | high polyreactivity
8 | QVQLQESSGGLVQAGGSLRMSCAASGTIFHFHIIGWYRQAPRKEREFVAASSYGTRTYYADSVKGRFTISRDNAKNTVYLQMNSQKPEDTAVYYCAVYDYLEVYCWYWGQGTQVTVRS | low polyreactivity
9 | QVQLQESVGGLVQAGGSLLLSCAASGNIFPTDRMGWYRQAPGKELEFVATISHGGSTNYADSVKGRFTISRDNAKNTVYLEMNSLKPEDTAVYYCAVWSLGRWRHYFWGQGTQVTVSS | low polyreactivity
10 | QVQLQESVGGLVQAGGSLRLSCAASGNIFDADIMGRYRQAPGKERELVASITDGGSTNYADSVKGRFTISLDNAKNTVYLHMNSLKPEDTAVYYCAARPHRYTSRHGYWGQGTQVTVSS | high polyreactivity
11 | QVQLQESVVGLVLAGGSLRLICSASANISVYGSMGWYRKAPGKEREFVATIDPGTNTNYADSVKDRFTISRDNAKNTVFLQINSLKPEYTAVYYCAVEGGSDWPYRYWGQGTQVTVSS | low polyreactivity
12 | QVQLQQSGGGLVQAGGSLRLSCAASGSIFDGFNMGWYRQAPGKAREFVAAIRYGASTYYADSVKGRFTVSRDNAKNSVYLQMNSLNPEDTAVYYCAKAYSDGYFPTFDYDYWGQGTQVTVSS | low polyreactivity
13 | QVQLQVSGGDLVQAGGSLRLSCAASGTIYGLTSMGWYRQAPGKEREFVAAITDGGNTNYADSVKGRFTISRDNAKNSVYLQMISLTPEDTAVYYCALLFSDEAYYAYCGQGTQVTVSS | low polyreactivity
14 | QVQLQVSGGGLVQAGGSLRLSCEASGSIFLTSEMGWYRQAPGIERELVAAIATGTSTNYADSVKGRFTISRDNAKNTVYLQMNSLKPEDTAVYYCATYHYWGQGTQVTVSS | low polyreactivity
15 | QVQLRESGAGGRQPAPELLGERQYFYWSADGLVSQAPGKEREFVAGIDRGTITNYADSVRGRFTISRDNAKNTVFRQMNSLKPEDTAVYYCAVPAYGDPRSYYWGQGTHVTVSS | high polyreactivity
16 | QVQLVASAGGLVQAGRSLRLSCAASGRIFSWYTMGWYRQAPGKERELVADITYSGGSTYYADSVKGRFTISRDNAKNTVYLQMNSLKPEDTAVVYCIADPRWYHFEYGYWGQGTQVTVSS | high polyreactivity
17 | QVQLVASGGGLVQAGGSLRLSCAASGLIFYIYMGWYRQGPGKERELVAVISSSGNSTYYADSVKGRFTISRDNAKNTVYLQMNSLKQEDTAVSYCNASAYYPPSSSRYDYWGQGTQVTVSS | low polyreactivity
18 | QVQLVASGGGLVQAGGSLRLSCSASGSIFKYYAMGWYRQAPGKERELVAAISSSGNTYYADSVKGRFTISRDNAKNTVYLQMNSLKPEDTAVYYCAAGIRRYRTYDYWGQGTQVTVSS | high polyreactivity
